Where two headings read alike, the source gives them in different places.
What was measured:
Test in all cases: cell-based or functional assay
[1] = molecular target: T1, human GIP receptor (human, UniProt P48546 22-466)
T1 sequence (looked up): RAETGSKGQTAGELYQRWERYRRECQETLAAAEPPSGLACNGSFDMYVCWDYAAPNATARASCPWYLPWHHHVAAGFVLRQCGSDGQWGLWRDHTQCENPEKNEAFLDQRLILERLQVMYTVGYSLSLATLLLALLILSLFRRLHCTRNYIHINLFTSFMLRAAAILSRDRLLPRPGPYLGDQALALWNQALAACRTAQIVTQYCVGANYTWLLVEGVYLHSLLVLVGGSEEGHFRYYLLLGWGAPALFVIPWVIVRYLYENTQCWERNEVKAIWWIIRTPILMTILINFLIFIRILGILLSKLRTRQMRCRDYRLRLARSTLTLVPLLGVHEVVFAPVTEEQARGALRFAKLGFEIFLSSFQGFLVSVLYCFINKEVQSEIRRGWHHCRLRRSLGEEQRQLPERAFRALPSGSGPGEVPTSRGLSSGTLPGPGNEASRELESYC

[2] = molecular target: T2, human GLP-1 receptor (human, UniProt P43220 24-463)
[3] = molecular target: T3, human glucagon receptor (human, UniProt P47871 26-477)
T3 sequence (P47871 26-477): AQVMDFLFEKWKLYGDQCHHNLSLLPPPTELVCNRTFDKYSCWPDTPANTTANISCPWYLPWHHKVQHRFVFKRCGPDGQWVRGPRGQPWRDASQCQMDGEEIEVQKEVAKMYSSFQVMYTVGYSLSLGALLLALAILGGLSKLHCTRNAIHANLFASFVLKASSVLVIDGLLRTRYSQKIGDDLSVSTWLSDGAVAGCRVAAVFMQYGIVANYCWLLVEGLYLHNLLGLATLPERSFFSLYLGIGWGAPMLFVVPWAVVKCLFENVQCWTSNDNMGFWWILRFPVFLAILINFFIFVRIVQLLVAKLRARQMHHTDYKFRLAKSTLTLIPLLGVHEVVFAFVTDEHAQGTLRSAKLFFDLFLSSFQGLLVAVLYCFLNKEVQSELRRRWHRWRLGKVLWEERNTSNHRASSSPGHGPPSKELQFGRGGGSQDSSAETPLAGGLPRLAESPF

[4] = molecular target: T1, human GIP receptor; remark: listed apart in the source
[5] = molecular target: T2, human GLP-1 receptor; remark: listed apart in the source
[6] = molecular target: T3, human glucagon receptor; remark: listed apart in the source
[7] = molecular target: T1, human GIP receptor; remark: listed apart in the source
[8] = molecular target: T2, human GLP-1 receptor; remark: listed apart in the source
[9] = molecular target: T3, human glucagon receptor; remark: listed apart in the source

B1: SEQ ID NO: 32 (peptide)
peptide: HXQGTFTSDLSKQKDEEAARLFIEWLKAGGPSSGAPPPS
modifications: D-Ser at 2; Lys 14 side chain K(γE-γE-x53) = (S)-4-Carboxy-4-((S)-4-carboxy-4-hexadecanoylamino-butyrylamino)-butyryl-; C-terminal amide
[1]
  EC50 hGIP-1: 0.565 nM
[2]
  EC50 hGLP-1R: 0.0019 nM
[3]
  EC50 hGlucagon-R: 0.0055 nM
[4]
  EC50 hGIP-1: 0.565 nM
[5]
  EC50 hGLP-1R: 0.0019 nM
[6]
  EC50 hGlucagon-R: 0.0055 nM

B2: SEQ ID NO: 9 (peptide)
peptide: HXQGTFTSDLSKQKDEEAARLFIEWLXAGGPSSGAPPPS
modifications: D-Ser at 2; Lys 14 side chain K(γE-γE-x53) = (S)-4-Carboxy-4-((S)-4-carboxy-4-hexadecanoylamino-butyrylamino)-butyryl-; Aib at 27; C-terminal amide
[1]
  EC50 hGIP-1: 3.6 nM
[2]
  EC50 hGLP-1R: 0.0018 nM
[3]
  EC50 hGlucagon-R: 0.0118 nM
[7]
  EC50 hGIP-R: 3.6 nM
[8]
  EC50 hGLP-1R: 0.0018 nM
[9]
  EC50 hGlucagon-R: 0.0118 nM
[4]
  EC50 hGIP-1: 3.6 nM
[5]
  EC50 hGLP-1R: 0.0018 nM
[6]
  EC50 hGlucagon-R: 0.0118 nM
